Reference: article PMC11696179, “Molecular condensation of the CO/NF-YB/NF-YC/FT complex gates floral transition in Arabidopsis” (The EMBO Journal, 2024)

T1: NF-YC9-GFP, recombinant (Arabidopsis thaliana, UniProt Q8L4B2 1-231)
T1 chain: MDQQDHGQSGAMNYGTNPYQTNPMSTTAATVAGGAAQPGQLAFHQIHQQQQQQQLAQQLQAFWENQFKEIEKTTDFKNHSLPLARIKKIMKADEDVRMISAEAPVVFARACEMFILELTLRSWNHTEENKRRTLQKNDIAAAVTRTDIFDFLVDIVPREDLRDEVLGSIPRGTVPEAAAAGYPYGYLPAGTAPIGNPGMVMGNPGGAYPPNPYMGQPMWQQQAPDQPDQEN

T2: CO/NF-YC9 mixture (mCherry-CO with NF-YC9-GFP), immobilised together (Arabidopsis thaliana, UniProt Q39057 1-373; Q8L4B2 1-231)
T2 chain 1: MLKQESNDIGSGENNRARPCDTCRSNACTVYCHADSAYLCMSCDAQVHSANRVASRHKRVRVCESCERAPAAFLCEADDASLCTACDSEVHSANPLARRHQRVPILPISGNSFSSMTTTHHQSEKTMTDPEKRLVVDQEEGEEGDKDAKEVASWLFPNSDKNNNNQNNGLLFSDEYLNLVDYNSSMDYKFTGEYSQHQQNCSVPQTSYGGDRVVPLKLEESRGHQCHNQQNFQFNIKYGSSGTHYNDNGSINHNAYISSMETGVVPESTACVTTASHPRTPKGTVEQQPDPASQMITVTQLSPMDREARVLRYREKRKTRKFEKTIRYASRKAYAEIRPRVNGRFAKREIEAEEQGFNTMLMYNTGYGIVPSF
T2 chain 2: T1 chain

T3: mCherry-CO (CONSTANS), recombinant (Arabidopsis thaliana, UniProt Q39057 1-373)
T3 construct: CONSTANS (CO), Arabidopsis thaliana; No tag cleavage step is described; also called SUMO-mCherry-CO; source: E. coli Rosetta pLysS, purified (HisTrap; size exclusion when necessary); not shown: mCherry, N-terminal, kept
T3 sequence (looked up): T2 chain 1

B1: mCherry-CO (CONSTANS), recombinant (natural protein)
chain: T2 chain 1
B2: NF-YB2, recombinant (natural protein, Arabidopsis thaliana, UniProt Q9FGJ3 1-190, looked up)
chain: MGDSDRDSGGGQNGNNQNGQSSLSPREQDRFLPIANVSRIMKKALPANAKISKDAKETMQECVSEFISFVTGEASDKCQKEKRKTINGDDLLWAMTTLGFEDYVEPLKVYLQRFREIEGERTGLGRPQTGGEVGEHQRDAVGDGGGFYGGGGGMQYHQHHQFLHQQNHMYGATGGGSDSGGGAASGRTRT
notes: Nuclear Factor-Y subunit B2 (NF-YB2), Arabidopsis thaliana; Unlabelled form, as used in SPR; also called His-NF-YB2; source: E. coli Rosetta pLysS, purified (HisTrap; size exclusion when necessary)
B3: NF-YB2, recombinant, labelled with Alexa Fluor 647 (natural protein, Arabidopsis thaliana, UniProt Q9FGJ3 1-190, looked up)
chain: B2 chain
modifications: Alexa Fluor 647 label (site not stated)
notes: Nuclear Factor-Y subunit B2 (NF-YB2), Arabidopsis thaliana; Same construct as m3, with the dye, as used for TIRF single-particle imaging; also called NF-YB2 (labeled by Alexa fluor 647); NF-YB2 with Alex647; source: E. coli Rosetta pLysS, purified (HisTrap; size exclusion when necessary)
B4: NF-YC9-GFP, recombinant (natural protein, Arabidopsis thaliana, UniProt Q8L4B2 1-231, looked up)
chain: T1 chain
notes: Nuclear Factor-Y subunit C9 (NF-YC9), Arabidopsis thaliana; No tag cleavage step is described; also called MBP-NF-YC9-GFP; source: E. coli Rosetta pLysS, purified (HisTrap; size exclusion when necessary); not shown: GFP, C-terminal, kept

Legend:
NF-YC9-GFP, recombinant [1] = molecular target: T1, NF-YC9-GFP, recombinant; assay: SPR; bivalent model, kd1
SPR; bivalent model, kd1 = molecular target: the molecule itself; assay: SPR; bivalent model, kd1
NF-YC9-GFP, recombinant [2] = molecular target: T1, NF-YC9-GFP, recombinant; assay: SPR; bivalent model
SPR; bivalent model = molecular target: the molecule itself; assay: SPR; bivalent model
[3] = molecular target: T2, CO/NF-YC9 mixture (mCherry-CO with …); assay: SPR; bivalent model, kd1
[4] = molecular target: B1; assay: SPR; bivalent model, kd1
[5] = molecular target: T2, CO/NF-YC9 mixture (mCherry-CO with …); assay: SPR; bivalent model
[6] = molecular target: B1; assay: SPR; bivalent model
[7] = molecular target: T3, mCherry-CO (CONSTANS), recombinant; assay: SPR; Biacore T200, 25 °C; CO, NF-YC9 or a CO/NF-YC9 mixture (4:1) amine-coupled to a CM5 chip (1000-2000 RU); analytes NF-YB2, CO, NF-YC9 in twofold dilutions; HBST (10 mM HEPES, 150 mM NaCl, 3 mM EDTA, 0.05% Tween 20, pH 7.4); bivalent analyte model; conditions: both partners purified
NF-YC9-GFP, recombinant [8] = molecular target: B4; assay: as above; conditions: both partners purified
[9] = molecular target: T3, mCherry-CO (CONSTANS), recombinant; assay: single-particle colocalisation by TIRF microscopy; 10 nM of each of two recombinant proteins mixed in 20 mM HEPES, 150 mM NaCl, pH 7.4 for 5 min, put on cover glass; conditions: both partners purified
NF-YC9-GFP, recombinant [10] = molecular target: B4; assay: as above; conditions: both partners purified
[11] = molecular target: the molecule itself; assay: SPR; Biacore T200, 25 °C; CO, NF-YC9 or a CO/NF-YC9 mixture (4:1) amine-coupled to a CM5 chip (1000-2000 RU); analytes NF-YB2, CO, NF-YC9 in twofold dilutions; HBST (10 mM HEPES, 150 mM NaCl, 3 mM EDTA, 0.05% Tween 20, pH 7.4); bivalent analyte model

Binder	koff (NF-YC9-GFP, recombinant [1])	koff (SPR; bivalent model, kd1)	Kd (NF-YC9-GFP, recombinant [2])	Kd (SPR; bivalent model)	koff [3]	koff [4]	Kd [5]	Kd [6]	binding result [7]	binding result (NF-YC9-GFP, recombinant [8])	binding result [9]	binding result (NF-YC9-GFP, recombinant [10])	binding result [11]
B1	0.00138 s⁻¹	0.0014 s⁻¹	53.6 nM	53.8 nM	–	–	–	–	–	–	–	–	–
B2	0.00173 s⁻¹	0.00137 s⁻¹	41.6 nM	23.7 nM	0.00139 s⁻¹	0.00202 s⁻¹	40.6 nM	100 nM	binds	binds	–	–	–
B3	–	–	–	–	–	–	–	–	–	–	binds	binds	–
B4	–	0.0017 s⁻¹	–	27.8 nM	–	–	–	–	–	–	binds	–	binds
